Here are results for 2 molecules from paper doi:10.1101/2021.09.03.458554 (bioRxiv, 2021).

The target in test [1] is T1, hGid4 (Δ1-115) (human, UniProt Q8IVV7 116-300).
T1 sequence: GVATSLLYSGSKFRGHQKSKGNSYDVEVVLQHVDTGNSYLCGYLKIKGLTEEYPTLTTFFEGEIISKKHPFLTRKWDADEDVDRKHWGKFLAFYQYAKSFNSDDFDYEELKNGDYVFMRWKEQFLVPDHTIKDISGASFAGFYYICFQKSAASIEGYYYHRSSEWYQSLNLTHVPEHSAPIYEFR
The experiment in a line: fluorescence polarisation. On the technique in general: In fluorescence polarisation assays a small probe gives low polarisation when free and higher when bound to something large.

The target of test [2] is T2, yGid10 (Δ1-64, Δ285-292) (S. cerevisiae, UniProt P53242 65-284).
T2 sequence: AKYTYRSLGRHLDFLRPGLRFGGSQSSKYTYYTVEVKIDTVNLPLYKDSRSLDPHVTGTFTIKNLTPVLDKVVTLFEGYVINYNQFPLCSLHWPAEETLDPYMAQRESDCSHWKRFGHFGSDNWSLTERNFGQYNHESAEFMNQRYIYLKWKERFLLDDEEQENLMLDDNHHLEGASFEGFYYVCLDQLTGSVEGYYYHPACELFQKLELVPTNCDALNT
The experiment in a line: crystal structure.

As to GVATSLLW [GVATSLLW peptide (hGid4 residues 116-122)], the binding result in test [1] is “binds”.

For FWLPANLW [FWLPANLW peptide], in test [2], the binding result is on record as “binds”.
